Reference: paper PMC6333830

Experiments:
[1] = target: Src-phosphorylated 15N-KRAS (residues 1-173, C118S), not separated (human) (UniProt P01116)
[2] = target: KRAS4B GTPase domain (residues 1-173, C118S), un-phosphorylated (human) (UniProt P01116)
[3] = target: Src-phosphorylated 15N-KRAS (residues 1-173, C118S), not separated (human) (UniProt P01116); remark: listed apart in the source
[4] = target: KRAS4B GTPase domain (residues 1-173, C118S), un-phosphorylated (human) (UniProt P01116); remark: listed apart in the source

| increase of the rate of GTP hydrolysis of pKRAS by the RASA1 GAP domain at a 1:3000 molar ratio, real-time NMR [1] [%] | acceleration of the rate of GTP hydrolysis of KRAS by the RASA1 GAP domain at a 1:3000 molar ratio, real-time NMR [2] [%] | fold acceleration of nucleotide exchange (GDP to GTPγS) of pKRAS by SOS^cat at a ratio of 1:600, real-time NMR [3] [fold] | fold acceleration of nucleotide exchange (GDP to GTPγS) of KRAS by SOS^cat at a ratio of 1:600, real-time NMR [4] [fold] | Substance |
| --- | --- | --- | --- | --- |
| < 20 | > 300 |  |  | GAP domain of human RASA1 (residues 715-1074) (domain or fragment) |
|  |  | < 3 | 17 | catalytic domain of Son of Sevenless 1 (SOS^cat, residues 564-1049) (from UniProt Q07889 564-1049) (domain or fragment) |
